Earlier results on 2 substances are cited in publication PMC6005658.

A word on the Ki: it is a measure of affinity in units of concentration, obtained from inhibition or displacement.

The target in the series is arodyn (1). Briefly: radioligand binding.

Chain of κ opioid receptor (P34975 whole entry): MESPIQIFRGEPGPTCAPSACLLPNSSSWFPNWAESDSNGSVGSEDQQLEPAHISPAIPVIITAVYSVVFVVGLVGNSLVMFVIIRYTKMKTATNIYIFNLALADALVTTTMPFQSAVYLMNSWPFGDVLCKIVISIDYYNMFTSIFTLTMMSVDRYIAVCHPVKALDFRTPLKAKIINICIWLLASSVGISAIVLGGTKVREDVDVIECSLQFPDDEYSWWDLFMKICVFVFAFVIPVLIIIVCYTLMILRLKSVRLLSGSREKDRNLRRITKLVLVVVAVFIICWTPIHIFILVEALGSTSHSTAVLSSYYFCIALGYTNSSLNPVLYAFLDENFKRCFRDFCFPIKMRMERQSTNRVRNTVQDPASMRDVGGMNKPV
Chain of μ opioid receptor (P33535 whole entry): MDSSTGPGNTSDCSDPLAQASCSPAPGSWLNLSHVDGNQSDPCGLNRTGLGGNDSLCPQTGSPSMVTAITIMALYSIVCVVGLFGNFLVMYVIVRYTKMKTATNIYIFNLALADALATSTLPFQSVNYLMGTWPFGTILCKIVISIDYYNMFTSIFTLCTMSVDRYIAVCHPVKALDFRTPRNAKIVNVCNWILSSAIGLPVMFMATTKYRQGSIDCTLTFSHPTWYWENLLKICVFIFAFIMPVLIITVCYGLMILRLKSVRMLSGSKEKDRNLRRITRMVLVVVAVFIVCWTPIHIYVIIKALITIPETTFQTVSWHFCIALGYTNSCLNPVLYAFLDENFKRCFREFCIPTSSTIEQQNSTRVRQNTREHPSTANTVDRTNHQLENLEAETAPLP

Regarding κ opioid receptor (from UniProt P34975), the Ki was 10 nM.

On to μ opioid receptor (from UniProt P33535), for which the Ki is 1750 nM.
